Measured values reported in patent US20260049138A1 (Chugai, published 2026).
Changes are numbered by the printed parent chain. Names may count otherwise.

B1: CE115HA000 H96S one-arm antibody (antibody, human IgG1, kappa, L234A L235A, N297A, name in Kabat numbering)
heavy: QVQLVESGGGVVQPGRSLRLSCAASGFTFSNAWMHWVRQAPGKGLEWVAQIKAKSNNYATYYAESVKGRFTISRDDSKNSLYLQMNSLKTEDTAVYYCRYVSYGAYYGVDAWGQGTTVTVSSASTKGPSVFPLAPSSKSTSGGTAALGCLVKDYFPEPVTVSWNSGALTSGVHTFPAVLQSSGLYSLSSVVTVPSSSLGTQTYICNVNHKPSNTKVDKKVEPKSCDKTHTCPPCPAPEAAGGPSVFLFPPKPKDTLMISRTPEVTCVVVDVSHEDPEVKFNWYVDGVEVHNAKTKPREEQYASTYRVVSVLTVLHQDWLNGKEYKCKVSNKALPAPIEKTISKAKGQPREPQVYTLPPSRCELTKNQVSLSCAVKGFYPSDIAVEWESNGQPENNYKTTPPVLDSDGSFFLVSKLTVDKSRWQQGNVFSCSVMHEALHNHYTQKSLSLSPDYKDDDDK
chain: EPKSSDKTHTCPPCPAPELLGGPSVFLFPPKPKDTLMISRTPEVTCVVVDVSHEDPEVKFNWYVDGVEVHNAKTKPREEQYNSTYRVVSVLTVLHQDWLNGKEYKCKVSNKALPAPIEKTISKAKGQPREPQVCTLPPSRDELTKNQVSLWCLVKGFYPSDIAVEWESNGQPENNYKTTPPVLDSDGSFFLYSKLTVDKSRWQQGNVFSCSVMHEALHNRYTQKSLSLSP
light: DIVMTQSPLSLPVTPGEPASISCRSSQSLVHSNRNTYLHWYQQKPGQAPRLLIYKVSNRFSGVPDRFSGSGSGTDFTLKISRVEAEDVGVYYCGQGTQVPYTFGQGTKLEIKRTVAAPSVFIFPPSDEQLKSGTASVVCLLNNFYPREAKVQWKVDNALQSGNSQESVTEQDSKDSTYSLSSTLTLSKADYEKHKVYACEVTHQGLSSPVTKSFNRGEC
B2: CE115HA000 H96Y one-arm antibody (antibody, human IgG1, kappa, L234A L235A, N297A, name in Kabat numbering)
heavy: B1 heavy with S102Y
chain: B1 chain
light: B1 light
B3: CE115HA000 I51D one-arm antibody (antibody, human IgG1, kappa, L234A L235A, N297A, name in Kabat numbering)
heavy: B1 heavy with I51D, S102H
chain: B1 chain
light: B1 light
B4: CE115HA000 K43E one-arm antibody (antibody, human IgG1, kappa, L234A L235A, N297A, name in Kabat numbering)
heavy: B1 heavy with K43E, S102H
chain: B1 chain
light: B1 light
B5: CE115HA000 K43Q one-arm antibody (antibody, human IgG1, kappa, L234A L235A, N297A, name in Kabat numbering)
heavy: B1 heavy with K43Q, S102H
chain: B1 chain
light: B1 light
B6: CE115HA000 K52E one-arm antibody (antibody, human IgG1, kappa, L234A L235A, N297A, name in Kabat numbering)
heavy: B1 heavy with K52E, S102H
chain: B1 chain
light: B1 light
B7: CE115HA000 K52D one-arm antibody (antibody, human IgG1, kappa, L234A L235A, N297A, name in Kabat numbering)
heavy: B1 heavy with K52D, S102H
chain: B1 chain
light: B1 light
B8: CE115HA000 K52H one-arm antibody (antibody, human IgG1, kappa, L234A L235A, N297A, name in Kabat numbering)
heavy: B1 heavy with K52H, S102H
chain: B1 chain
light: B1 light
B9: CE115HA000 I51E one-arm antibody (antibody, human IgG1, kappa, L234A L235A, N297A, name in Kabat numbering)
heavy: B1 heavy with I51E, S102H
chain: B1 chain
light: B1 light
B10: CE115HA000 K52F one-arm antibody (antibody, human IgG1, kappa, L234A L235A, N297A, name in Kabat numbering)
heavy: B1 heavy with K52F, S102H
chain: B1 chain
light: B1 light

molecular target: T1, CD3ε homodimer protein (human, UniProt P07766 23-126, limits assumed, sulfo-tag or biotin label in the ECL assays; amine-coupled to the chip in SPR); experiment: SPR Biacore T200; CD3ε homodimer on CM4 chip;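 also: Single-residue variant antibodies injected as analyte over CD3ε homodimer immobilized by amine coupling, run at 25 °C in HBS-EP+ buffer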
T1 construct: also called human CD3ε homodimer protein; CD3 (CD3ε)
T1 sequence (P07766 23-126 limits assumed): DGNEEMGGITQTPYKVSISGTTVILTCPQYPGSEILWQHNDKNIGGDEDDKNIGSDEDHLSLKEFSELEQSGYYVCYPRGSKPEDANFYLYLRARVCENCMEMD

ratio of amounts bound Z=Y/X (altered form / CE115HA000)	Binder
0.44	B1
0.17	B2
0.29	B3
0.9	B4
0.99	B5
0.26	B6
0.25	B7
0.22	B8
0.55	B9
0.17	B10
